In WO2021160116A1:

Target: human FcRn mut (L320A, L321A) co-transfected with human β2M, stably overexpressed on HEK293 cells (human) (UniProt P55899)
Assay: flow cytometry competition, Argx-113 against biotin-hIgG (100 μg/mL) on HEK293 cells overexpressing human FcRn mut, pH 6.0

Chain of human FcRn mut (L320A, L321A) co-transfected with human β2M, stably overexpressed on HEK293 cells (human) (P55899 24-365 L343A/L344A, chain 1 of 2): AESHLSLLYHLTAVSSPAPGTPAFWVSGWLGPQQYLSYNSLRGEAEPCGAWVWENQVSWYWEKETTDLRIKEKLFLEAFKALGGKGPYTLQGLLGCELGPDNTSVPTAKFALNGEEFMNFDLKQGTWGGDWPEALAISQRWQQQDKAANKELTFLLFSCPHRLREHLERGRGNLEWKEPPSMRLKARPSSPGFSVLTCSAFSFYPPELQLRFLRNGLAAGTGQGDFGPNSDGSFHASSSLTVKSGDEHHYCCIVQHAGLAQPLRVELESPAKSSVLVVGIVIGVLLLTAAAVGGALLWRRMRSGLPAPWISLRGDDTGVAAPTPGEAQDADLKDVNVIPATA
Chain of human FcRn mut (L320A, L321A) co-transfected with human β2M, stably overexpressed on HEK293 cells (human) (P61769 21-119, chain 2 of 2, further chain): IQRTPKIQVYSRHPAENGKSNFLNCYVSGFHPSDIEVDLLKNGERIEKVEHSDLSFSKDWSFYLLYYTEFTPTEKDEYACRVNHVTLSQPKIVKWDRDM

Argx-113 gave an IC50 of 9.77 nM.
